Reference: paper PMC6380570

Legend:
[1] = target: S100A1 protein (1-93 amino acids); assay: other fluorescence titration; tryptophan fluorescence of S100A1 (3.50 uM; excitation 295 nm, emission 344 nm); S100A4 added from 0 to 10.50 uM in steps of about 0.70 uM; 0.1 mM EDTA, 8 mM NaCl, 0.34 mM NaN3, 6 mM CaCl2, 16 mM Tris, pH 6.0; linear (double-reciprocal) fit
[2] = target: S100A1 protein (1-93 amino acids)

Kd [1]: 6.2 µM
WST-1 proliferation assay of SW480 cells (which contain RAGE) treated with the S100A4-S100A1 complex (100 nM), against S100A1 alone; pair said to be blocked: S100A1 and the RAGE V domain [2]: 1.38 fold
Substance: S100A4 (Mts1) protein (from UniProt P26447 4-101) (natural protein)
